B1: BTBD1 (parent)
chain: FVLGKGRGAAAAGGPQRIPAHRFV
B2: KRT13 (parent)
chain: KTIEELRDKILTATIENNRVILEI

Variants of: B1
Assay: protein stability index of a GFP-peptide fusion (GPS, HEK-293T) (PSI 1-6); higher = more stable
Settings: c terminus: a fixed tail appended
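Further: lentivirally expressed fusions sorted by FACS into six bins by GFP to DsRed ratio, PSI derived from sequencing read proportions per bin multiplied by bin number.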

Q: With I18R as the variant, how does the protein stability index read?
A: 1.46

Q: With I18P as the variant, how does the protein stability index read?
A: 2.12

Q: For G4F, which protein stability index is on record?
A: 2.27

Q: For G4P, which protein stability index is on record?
A: 2.59

Q: Which protein stability index does the source give for G4R here?
A: 2.33

Q: For G4D, which protein stability index is on record?
A: 1.53

Q: For G4T, which protein stability index is on record?
A: 1.46

Q: For G4L, which protein stability index is on record?
A: 2.39

Q: For P19R, which protein stability index is on record?
A: 1.81

Q: For P19S, which protein stability index is on record?
A: 1.31

Q: With P19V as the variant, how does the protein stability index read?
A: 1.26

Q: With P19L as the variant, how does the protein stability index read?
A: 1.5

Q: For P19N, which protein stability index is on record?
A: 2.06

Q: With P19D as the variant, how does the protein stability index read?
A: 1.53

Q: For Q16D, which protein stability index is on record?
A: 1.41

Q: With Q16S as the variant, how does the protein stability index read?
A: 1.9

Q: Which protein stability index does the source give for Q16E here?
A: 1.67

Q: Which protein stability index does the source give for Q16R here?
A: 1.9

Q: Which protein stability index does the source give for Q16A here?
A: 1.6

Q: With Q16P as the variant, how does the protein stability index read?
A: 1.86

Q: Which protein stability index does the source give for G14S here?
A: 2.64

Q: With G14C as the variant, how does the protein stability index read?
A: 2.08

Q: With G14L as the variant, how does the protein stability index read?
A: 2.15

Q: With R22L as the variant, how does the protein stability index read?
A: 2.3

Q: For A9L, which protein stability index is on record?
A: 3.31

Q: With A9T as the variant, how does the protein stability index read?
A: 1.96

Q: With A9I as the variant, how does the protein stability index read?
A: 1.94

Q: With A11Y as the variant, how does the protein stability index read?
A: 1.63

Q: With A11C as the variant, how does the protein stability index read?
A: 2.71

Q: With A11M as the variant, how does the protein stability index read?
A: 1.73

Q: For A11H, which protein stability index is on record?
A: 1.96

Q: For A11N, which protein stability index is on record?
A: 1.71

Q: Which protein stability index does the source give for A12D here?
A: 1.91

Q: Which protein stability index does the source give for A12Y here?
A: 1.16

Q: For K5A, which protein stability index is on record?
A: 1.2

Q: Which protein stability index does the source give for K5R here?
A: 2.08

Q: For K5V, which protein stability index is on record?
A: 1.38

Q: With F23Q as the variant, how does the protein stability index read?
A: 2.19

Q: For F23N, which protein stability index is on record?
A: 1.9

Q: Which protein stability index does the source give for V2F here?
A: 1.67

Q: Which protein stability index does the source give for V2I here?
A: 1.68

Q: For V2S, which protein stability index is on record?
A: 3.35

Q: With V2K as the variant, how does the protein stability index read?
A: 2.85

Q: Which protein stability index does the source give for G6N here?
A: 2.1

Q: For G6L, which protein stability index is on record?
A: 2.69

Q: Which protein stability index does the source give for G6M here?
A: 1.38

Q: With G6K as the variant, how does the protein stability index read?
A: 1.69

Q: With G6F as the variant, how does the protein stability index read?
A: 1.02

Q: With R7H as the variant, how does the protein stability index read?
A: 1.7

Q: With R7K as the variant, how does the protein stability index read?
A: 1.17

Q: For R7D, which protein stability index is on record?
A: 1.49

Q: With R7I as the variant, how does the protein stability index read?
A: 2.15

Q: Which protein stability index does the source give for A20C here?
A: 1.73

Q: With A20H as the variant, how does the protein stability index read?
A: 2.4

Q: With A20F as the variant, how does the protein stability index read?
A: 2.32

Q: With A20L as the variant, how does the protein stability index read?
A: 1.76

Q: Which protein stability index does the source give for R17W here?
A: 1.41

Q: Which protein stability index does the source give for R17M here?
A: 1.56

Q: Which protein stability index does the source give for R17D here?
A: 2.54

Q: With R17H as the variant, how does the protein stability index read?
A: 1.86

Q: For R17Y, which protein stability index is on record?
A: 1.49

Q: For G13I, which protein stability index is on record?
A: 2.25

Q: With G13M as the variant, how does the protein stability index read?
A: 2.07

Q: For G13Q, which protein stability index is on record?
A: 2

Q: For G13H, which protein stability index is on record?
A: 1.71

Q: Which protein stability index does the source give for P15Q here?
A: 1.5

Q: Which protein stability index does the source give for P15M here?
A: 2.08

Q: Which protein stability index does the source give for L3I here?
A: 1.68

Q: With L3A as the variant, how does the protein stability index read?
A: 2.17

Q: With G8D as the variant, how does the protein stability index read?
A: 2.13

Q: Which protein stability index does the source give for G8T here?
A: 2

Q: For G8I, which protein stability index is on record?
A: 2.26

Q: With G8N as the variant, how does the protein stability index read?
A: 1.62

Q: With A10D as the variant, how does the protein stability index read?
A: 1.64

Q: With A10E as the variant, how does the protein stability index read?
A: 1.67

Q: Which protein stability index does the source give for A10N here?
A: 1.96

Q: For A10W, which protein stability index is on record?
A: 1.98

Q: With V24K as the variant, how does the protein stability index read?
A: 2.12

Q: For V24P, which protein stability index is on record?
A: 2.47

Q: Which protein stability index does the source give for F1P here?
A: 3.04

Q: With F1N as the variant, how does the protein stability index read?
A: 3.31

Q: Which protein stability index does the source give for F1M here?
A: 2.29

Q: With F1D as the variant, how does the protein stability index read?
A: 3.02

Variants of: B2
Assay: as above
Settings: c terminus: a fixed tail appended

Q: With N17I as the variant, how does the protein stability index read?
A: 1.73

Q: With N17C as the variant, how does the protein stability index read?
A: 3.65

Q: With N17G as the variant, how does the protein stability index read?
A: 3.5

Q: For L6A, which protein stability index is on record?
A: 1.94

Q: With L6E as the variant, how does the protein stability index read?
A: 1.85

Q: For I15T, which protein stability index is on record?
A: 2.6

Q: For I15N, which protein stability index is on record?
A: 2.98

Q: For I15F, which protein stability index is on record?
A: 1.08

Q: For I15E, which protein stability index is on record?
A: 1.69

Q: With E23P as the variant, how does the protein stability index read?
A: 2.08

Q: For E23G, which protein stability index is on record?
A: 2.06

Q: Which protein stability index does the source give for E23D here?
A: 2.45

Q: Which protein stability index does the source give for E23Y here?
A: 2.07

Q: For I21S, which protein stability index is on record?
A: 1.55

Q: Which protein stability index does the source give for R19I here?
A: 3

Q: Which protein stability index does the source give for R19M here?
A: 2.14

Q: With L11F as the variant, how does the protein stability index read?
A: 2.34

Q: With L11C as the variant, how does the protein stability index read?
A: 2.33

Q: Which protein stability index does the source give for L11D here?
A: 1.57

Q: With L11E as the variant, how does the protein stability index read?
A: 1.92

Q: With L11H as the variant, how does the protein stability index read?
A: 1.52

Q: With L11T as the variant, how does the protein stability index read?
A: 1.91

Q: For A13H, which protein stability index is on record?
A: 2.38

Q: With A13N as the variant, how does the protein stability index read?
A: 2.31

Q: Which protein stability index does the source give for A13P here?
A: 1.87

Q: For A13S, which protein stability index is on record?
A: 3.69

Q: Which protein stability index does the source give for A13T here?
A: 1.92

Q: With N18D as the variant, how does the protein stability index read?
A: 2.18

Q: With N18E as the variant, how does the protein stability index read?
A: 3.06

Q: With N18R as the variant, how does the protein stability index read?
A: 3.44

Q: With N18K as the variant, how does the protein stability index read?
A: 3.44

Q: Which protein stability index does the source give for N18P here?
A: 3.68

Q: For N18S, which protein stability index is on record?
A: 2.99

Q: With N18G as the variant, how does the protein stability index read?
A: 2.33

Q: For K9G, which protein stability index is on record?
A: 2.21

Q: With I24F as the variant, how does the protein stability index read?
A: 3

Q: For I24Q, which protein stability index is on record?
A: 2.44

Q: For I24M, which protein stability index is on record?
A: 1.9

Q: For I24C, which protein stability index is on record?
A: 2.44

Q: Which protein stability index does the source give for I24W here?
A: 2.09

Q: With I10G as the variant, how does the protein stability index read?
A: 1.69

Q: Which protein stability index does the source give for I10E here?
A: 2

Q: For I10H, which protein stability index is on record?
A: 2.12

Q: For K1R, which protein stability index is on record?
A: 1.6

Q: For K1C, which protein stability index is on record?
A: 1.99

Q: Which protein stability index does the source give for K1N here?
A: 2.48

Q: Which protein stability index does the source give for T2K here?
A: 2.6

Q: With T2C as the variant, how does the protein stability index read?
A: 2.92

Q: With T2Q as the variant, how does the protein stability index read?
A: 3.17

Q: With T2A as the variant, how does the protein stability index read?
A: 2.31

Q: With T14V as the variant, how does the protein stability index read?
A: 1.02

Q: For T14E, which protein stability index is on record?
A: 2.77

Q: Which protein stability index does the source give for T14L here?
A: 1.71

Q: Which protein stability index does the source give for T14A here?
A: 4.11

Q: For T14M, which protein stability index is on record?
A: 2.52

Q: Which protein stability index does the source give for T14H here?
A: 2.53

Q: Which protein stability index does the source give for I3G here?
A: 3.54

Q: For I3R, which protein stability index is on record?
A: 1.36

Q: With I3P as the variant, how does the protein stability index read?
A: 1.39

Q: For I3S, which protein stability index is on record?
A: 2.41

Q: For I3F, which protein stability index is on record?
A: 3.37

Q: For T12P, which protein stability index is on record?
A: 2.42

Q: Which protein stability index does the source give for T12Y here?
A: 3.8

Q: For E4F, which protein stability index is on record?
A: 3.99

Q: With E4T as the variant, how does the protein stability index read?
A: 3.39

Q: Which protein stability index does the source give for E4A here?
A: 1.85

Q: Which protein stability index does the source give for E4D here?
A: 3.39

Q: With L22V as the variant, how does the protein stability index read?
A: 2.97

Q: For L22N, which protein stability index is on record?
A: 2.83

Q: Which protein stability index does the source give for L22P here?
A: 3.33

Q: Which protein stability index does the source give for L22A here?
A: 2.2

Q: For L22G, which protein stability index is on record?
A: 1.8

Q: For L22C, which protein stability index is on record?
A: 2.8

Q: Which protein stability index does the source give for R7I here?
A: 2.6

Q: With R7M as the variant, how does the protein stability index read?
A: 2.07

Q: For R7Q, which protein stability index is on record?
A: 2.85

Q: Which protein stability index does the source give for E5R here?
A: 2.13

Q: For E5P, which protein stability index is on record?
A: 3.07

Q: For V20N, which protein stability index is on record?
A: 2.57

Q: With V20W as the variant, how does the protein stability index read?
A: 3.15

Q: For E16L, which protein stability index is on record?
A: 3.35

Q: Which protein stability index does the source give for E16M here?
A: 2.72

Q: With D8Q as the variant, how does the protein stability index read?
A: 1.67

Q: For D8S, which protein stability index is on record?
A: 2.79

— the supplement of paper PMC10567573
